Data on one substance can be found in publication PMC12485133.

For assay [1], the target named is N-myristoylated human Arf1 bound to GTPγS, anchored on nanodiscs (myrArf1·GTPγS) (human) (UniProt P84077).
For assay [2] the target is unchanged. The assay is described as follows: not stated; binding of PH variants and Arf variants compared with wild type (Fig. SI8 and Table SI1); the method is not given.

Sequence of N-myristoylated human Arf1 bound to GTPγS, anchored on nanodiscs (myrArf1·GTPγS) (human) (P84077 whole entry): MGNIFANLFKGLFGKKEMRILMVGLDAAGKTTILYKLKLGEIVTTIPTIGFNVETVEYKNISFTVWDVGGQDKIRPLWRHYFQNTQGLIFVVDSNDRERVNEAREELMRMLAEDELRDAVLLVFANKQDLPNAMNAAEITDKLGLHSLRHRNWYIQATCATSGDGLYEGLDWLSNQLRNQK

Turning to “ASAP1 PH domain Lys391Ala (from UniProt Q9QWY8 325-451) (domain or fragment)”, the fold decrease in GAP activity compared with wild type (C50 of PZA, Fig. 7C) in assay [1] turned out to be 100 fold. Also, the fold reduction of binding against wild type in assay [2] stood at 2 fold.
